Source: patent US20200148733A1 (Pieris, published 2020)
Where “and” joins values, the source holds several entries; their conditions need not be identical. Equal entries are not always repeated.

T1: human IL-23 (human, UniProt Q9NPF7 20-189; P29460 23-328)
T1 construct: Heterodimer of p19 and p40; in the proliferation assays CAT # HZ-1254, HumanZyme; also called hIL-23; hIL23
T1 sequence (looked up) 1: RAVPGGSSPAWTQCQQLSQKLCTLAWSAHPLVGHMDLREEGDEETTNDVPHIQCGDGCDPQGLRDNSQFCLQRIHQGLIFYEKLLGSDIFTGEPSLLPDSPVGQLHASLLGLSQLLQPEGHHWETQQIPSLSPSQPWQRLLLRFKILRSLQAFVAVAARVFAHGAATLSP
T1 sequence (looked up) 2: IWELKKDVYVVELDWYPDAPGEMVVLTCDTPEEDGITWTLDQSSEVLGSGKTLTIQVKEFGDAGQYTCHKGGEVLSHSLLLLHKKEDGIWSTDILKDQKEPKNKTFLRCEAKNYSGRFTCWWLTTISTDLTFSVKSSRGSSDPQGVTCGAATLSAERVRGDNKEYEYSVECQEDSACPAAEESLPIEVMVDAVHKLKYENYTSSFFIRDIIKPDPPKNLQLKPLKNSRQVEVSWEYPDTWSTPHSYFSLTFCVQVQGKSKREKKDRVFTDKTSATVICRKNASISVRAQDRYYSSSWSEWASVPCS

T2: human IL-12p40 (human, UniProt P29460 23-328)
T2 construct: also called hIL-12p40
T2 sequence (looked up): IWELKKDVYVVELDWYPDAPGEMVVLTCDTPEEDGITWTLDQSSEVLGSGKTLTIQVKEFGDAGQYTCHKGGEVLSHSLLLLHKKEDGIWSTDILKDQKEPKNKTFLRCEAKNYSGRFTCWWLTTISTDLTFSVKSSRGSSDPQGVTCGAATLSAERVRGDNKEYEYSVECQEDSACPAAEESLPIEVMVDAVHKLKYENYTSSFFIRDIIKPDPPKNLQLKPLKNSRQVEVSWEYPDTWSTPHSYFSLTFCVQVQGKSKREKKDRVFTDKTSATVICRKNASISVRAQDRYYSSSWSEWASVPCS

T3: mouse IL-23 (mouse, UniProt Q9EQ14 22-196; P43432 23-335)
T3 construct: also called mIL-23
T3 sequence (looked up) 1: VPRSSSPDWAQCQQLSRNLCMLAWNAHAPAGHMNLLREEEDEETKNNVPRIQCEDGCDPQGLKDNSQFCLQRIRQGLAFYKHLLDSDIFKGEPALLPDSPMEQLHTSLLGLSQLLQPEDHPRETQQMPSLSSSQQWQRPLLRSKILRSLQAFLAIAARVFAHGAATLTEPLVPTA
T3 sequence (looked up) 2: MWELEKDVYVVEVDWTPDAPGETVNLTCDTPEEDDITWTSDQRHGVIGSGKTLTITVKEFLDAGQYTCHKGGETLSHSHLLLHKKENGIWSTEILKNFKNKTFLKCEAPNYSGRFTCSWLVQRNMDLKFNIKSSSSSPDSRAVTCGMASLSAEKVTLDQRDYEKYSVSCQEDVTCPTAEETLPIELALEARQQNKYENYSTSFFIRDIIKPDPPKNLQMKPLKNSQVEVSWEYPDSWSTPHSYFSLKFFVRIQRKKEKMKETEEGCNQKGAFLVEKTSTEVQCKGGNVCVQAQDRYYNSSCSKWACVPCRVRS


Key:
human IL-23 [1] = target: T1, human IL-23; assay: SPR (Biacore T200), IL-23 amine-coupled to CM5 chip, mutein in solution, 25 C, 1:1 binding model
Protocol: (§1) Residual activated groups were quenched with ethanolamine. The reference channels were treated with EDC/NHS following ethanolamine (blank immobilization).
(§2) The binding assay was carried out with a contact time of 300 s, dissociation time of 1200 s and applying a flow rate of 30 μL/min. All measurements were performed at 25° C. […] Prior to the protein measurements three startup cycles were performed for conditioning purposes. Data were evaluated with Biacore T200 Evaluation software (V 1.0). Double referencing was used. The 1:1 Binding model was used to fit the raw data.

human IL-12p40 [2] = target: T2, human IL-12p40; assay: solution competition ELISA, 10 nM SEQ ID NO: 9, plate with biotinylated hIL-23
Protocol: (§3) In the following detailed experimental protocol, incubation and washing steps were performed as described above in the competition ELISA protocol. A 384-well plate suitable for fluorescence measurements (Greiner FLUOTRAC™ 600, black flat bottom, high-binding) was coated with 20 μl of Neutravidin at a concentration of 5 μg/ml in PBS over night at 4° C. After washing, the Neutravidin-coated wells were blocked with 100 μl PBS-T/BSA for 1h at room temperature.

human IL-23 [3] = target: T1, human IL-23; assay: competition ELISA (ECL): 0.01 nM biotinylated hIL-23 pre-incubated with varied mutein, free hIL-23 captured on coated soluble hIL-23R (competitor)
Protocol: All incubation steps were performed with shaking 300 rpm, and the plate was washed after each incubation step with 80 μl PBS/0.05% Tween 20 for five times using a Biotek ELx405 select CW washer. […] After washing, the receptor-coated wells were blocked with 60 μl PBS-T/BSA for 1 h at room temperature.
(§4) After washing, 60 μl MSD Read Buffer T (2×) was added to each well and the plate was read within 15 min.

human IL-23 [4] = target: T1, human IL-23; assay: SPR (Biacore T200), hIL-23 immobilized on CM5 chip, mutein injected, fit 1:1 Binding
Protocol: as §1, §2

human IL-23 [5] = target: T1, human IL-23; assay: Surface Plasmon Resonance, legend of FIG. 6B (rounded value of the measurement of the example)
Protocol: as §1, §2

mouse IL-23 [6] = target: T3, mouse IL-23; assay: solution competition ELISA (FIG. 5B)
Protocol: as §3

human IL-23 [7] = target: T1, human IL-23; assay: cell-based or functional assay
human IL-23 [8] = target: T1, human IL-23; assay: competition ECL assay: biotinylated hIL-23 pre-incubated with varied binder, free hIL-23 captured on coated soluble hIL-23R (competitor); Example 28
human IL-23 [9] = target: T1, human IL-23; assay: cell-based or functional assay; remark: listed apart in the source
human IL-23 [10] = target: T1, human IL-23; assay: competition ELISA (ECL): 0.2 nM biotinylated hIL-23 pre-incubated with varied mutein, free hIL-23 captured on coated soluble hIL-23R (competitor)
human IL-23 [11] = target: T1, human IL-23; assay: competition ELISA (ECL), 0.2 nM biotinylated hIL-23, coated soluble hIL-23R
human IL-23 [12] = target: T1, human IL-23; assay: competition ELISA (ECL): 0.05 nM biotinylated hIL-23 pre-incubated with varied binder, free hIL-23 captured on coated soluble hIL-23R (competitor); average of two measurements
Protocol: (§5) The IgG antibody served as the positive control. […] The detailed experimental procedure was described as follows.
as §4
(§6) The resulting Electrochemoluminescence (ECL) signal was measured with a suitable instrument such as the SECTOR Imager 2400 (Meso Scale Discovery).

human IL-23 [13] = target: T1, human IL-23; assay: competition ELISA (ECL): 0.05 nM biotinylated hIL-23 pre-incubated with varied binder, free hIL-23 captured on coated soluble hIL-23R (competitor); single measurement
Protocol: as §5, §4, §6

mouse IL-23 [14] = target: T3, mouse IL-23; assay: solution competition ELISA (FIG. 5A)
Protocol: as §3

human IL-12p40 [15] = target: T2, human IL-12p40; assay: solution competition ELISA, 1 nM SEQ ID NO: 10, plate with biotinylated hIL-23
Protocol: as §3

human IL-23 [16] = target: T1, human IL-23; assay: Surface Plasmon Resonance, legend of FIG. 6C (rounded value of the measurement of the example)
Protocol: as §1, §2

Binder | Kd (human IL-23 [1]) | koff (human IL-23 [1]) | kon (human IL-23 [1]) | IC50 (human IL-23 [3]) | koff (human IL-23 [4]) | kon (human IL-23 [4]) | EC50 [nM] AVERAGE, hIL-23-induced proliferation of Ba/F3 cells expressing hIL-23R and hIL-12Rβ1 (human IL-23 [9]) | EC50 [nM] Exp 1, hIL-23-induced proliferation of Ba/F3 cells expressing hIL-23R and hIL-12Rβ1 (human IL-23 [9]) | EC50 [nM] Exp 2, hIL-23-induced proliferation of Ba/F3 cells expressing hIL-23R and hIL-12Rβ1 (human IL-23 [9]) | EC50 [nM] Exp 3, hIL-23-induced proliferation of Ba/F3 cells expressing hIL-23R and hIL-12Rβ1 (human IL-23 [9]) | EC50 [nM] Exp 4, hIL-23-induced proliferation of Ba/F3 cells expressing hIL-23R and hIL-12Rβ1 (human IL-23 [9]) | other results
lipocalin mutein SEQ ID NO: 9 (designed binder, Human NGAL (lipocalin 2) mutein specific for IL-23p19) QDSTSDLIPAPPLSKVPLQQNFQDNQFHGKWYVVGMAGNLMLREDKDPTKMSATIYELKEDKSYNVTWVDFRFKKCKYQIGTFVPGSQPGEFTLGGIKSMPGMTSFLVRVVSTNYNQHAMVFFKYVYQNREYFEITLYGRTKELTSELKENFIRFSKSLGLPENHIVFPVPIDQCIDG | 135 nM | 0.00063 s⁻¹ | 4700 M⁻¹ s⁻¹ | 119 nM | 0.00063 s⁻¹ | 4650 M⁻¹ s⁻¹ | – | – | – | – | – | binding result (human IL-12p40 [2]): no binding (tested: ligand up to 1000 nM); Kd (human IL-23 [5]): 135 nM; binding result (mouse IL-23 [6]): binds
lipocalin mutein SEQ ID NO: 15 (designed binder, IL-23p19-specific mutein) QDSTSDLIPAPPLSKVPLQQNFQDNQFHGKWYVVGEAGNLLLREDKDPRKMTATIYELKEDKSYNVTRVEFGVKTYKYQIGTFVPGSQPGEFTLGGIKSMPGMTSFLVRVVSTNYNQHAMVFFKYVYQNREYFEITLYGRTKELTSELKENFIRFSKSLGLPENHIVFPVPIDQAIDG | – | – | – | – | – | – | 0.6 nM | 0.3 nM | 0.4 nM | 1 nM | 0.7 nM | IC50, hIL-23-induced proliferation of Ba/F3 cells expressing hIL-23R and hIL-12Rβ1 (human IL-23 [7]): 3.8 nM; IC50 (human IL-23 [8]): 0.27 nM; IC50 (human IL-23 [10]): 0.3 nM
negative control SEQ ID NO: 11 (designed binder) QDSTSDLIPAPPLSKVPLQQNFQDNEFHGKWYVVGLAGNAILREDKDPQKMYATIYELKEDKSYNVTSVLFRKKKCDYWIRTFVPGSQPGEFTLGNIKSYPGLTSYLVRVVSTNYNQHAMVFFKKVSQNREYFKITLYGRTKELTSELKENFIRFSKSLGLPENHIVFPVPIDQCIDG | – | – | – | – | – | – | – | – | – | – | – | binding result (human IL-23 [11]): no binding (tested: starting concentration 500 nM)
IgG antibody (comprising the amino acids shown in SEQ ID NOs: 51 and 52) (antibody, V domains shown, also called positive control IgG) VH: QVQLVQSGAEVKKPGASVKVSCKASGYIFITYWMTWVRQAPGQGLEWMGQIFPASGSADYNEKFEGRVTMTTDTSTSTAYMELRSLRSDDTAVYYCARGGGGFAYWGQGTLVTVSS VL: DIQMTQSPSSLSASVGDRVTITCRTSENIYSYLAWYQQKPGKAPKLLIYNAKTLAEGVPSRFSGSGSGTDFTLTISSLQPEDFATYYCQHHYGIPFTFGQGTKVEIKR | – | – | – | – | – | – | – | – | – | – | – | IC50 (human IL-23 [12]): 0.26 nM; IC50 (human IL-23 [13]): 0.22 nM and 0.29 nM
lipocalin mutein SEQ ID NO: 10 (designed binder, Human NGAL (lipocalin 2) mutein specific for IL-23p19) QDSTSDLIPAPPLSKVPLQQNFQDNQFHGKWYVVGLAGNTILREDKDPDKMEATIYELKEDKSYNVTSVDFIMKKCWYFITTFVPGSQPGEFTLGHIKSMPGMTSFLVRVVSTNYNQHAMVFFKYVYQNREFFEITLYGRTKELTSELKENFIRFSKSLGLPENHIVFPVPIDQCIDG | 11.5 nM | 0.00048 s⁻¹ | 42000 M⁻¹ s⁻¹ | 1.9 nM | 0.000598 s⁻¹ | 36300 M⁻¹ s⁻¹ | 332 nM | 515 nM | 199 nM | 316 nM | 296 nM | binding result (mouse IL-23 [14]): binds; binding result (human IL-12p40 [15]): no binding (tested: ligand up to 1000 nM); Kd (human IL-23 [16]): 11 nM
